Results taken from patent US20140087995A1 (published 2014).
Numbered stars: 1 amine (or outer) side, 2 acyl side, 3 side chain; on linkers, the order of the positions; unused ones are H or OH. Bridge positions count the residues as written; N and C are the ends. Side chains are listed from the residue outwards. Ends that are not written are not given here. * marks the point of attachment. C20 diacid = O=C(O)CCCCCCCCCCCCCCCCCCC(=O)*; γGlu = O=C(O)[C@H](CCC(=O)[*:2])N[*:1]; AEEA = NCCOCCOCC(=O)O

T1: human amylin receptor (amylin 3(a) receptor: human calcitonin receptor co-expressed with RAMP-3) (human, UniProt P30988 25-474; O60896 24-148, limits assumed)
T1 sequence (looked up) 1: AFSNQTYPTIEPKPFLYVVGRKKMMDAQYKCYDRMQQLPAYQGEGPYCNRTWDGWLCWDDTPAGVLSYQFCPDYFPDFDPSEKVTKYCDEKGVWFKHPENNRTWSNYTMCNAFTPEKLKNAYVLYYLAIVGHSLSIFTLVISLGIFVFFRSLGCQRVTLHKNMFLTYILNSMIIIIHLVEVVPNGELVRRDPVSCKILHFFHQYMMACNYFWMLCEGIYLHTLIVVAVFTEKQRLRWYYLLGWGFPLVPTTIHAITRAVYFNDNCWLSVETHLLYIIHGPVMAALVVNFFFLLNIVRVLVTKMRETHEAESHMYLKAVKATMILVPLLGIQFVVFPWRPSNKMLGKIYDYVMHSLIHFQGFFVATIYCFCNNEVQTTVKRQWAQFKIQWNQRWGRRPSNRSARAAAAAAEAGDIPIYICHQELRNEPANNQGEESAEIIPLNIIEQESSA
T1 sequence (looked up) 2: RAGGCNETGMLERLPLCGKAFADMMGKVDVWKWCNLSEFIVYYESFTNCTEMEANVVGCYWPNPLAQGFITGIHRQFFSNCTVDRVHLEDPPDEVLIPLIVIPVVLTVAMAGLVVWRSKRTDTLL

T2: human calcitonin receptor (human, UniProt P30988 25-474)
T2 sequence (looked up): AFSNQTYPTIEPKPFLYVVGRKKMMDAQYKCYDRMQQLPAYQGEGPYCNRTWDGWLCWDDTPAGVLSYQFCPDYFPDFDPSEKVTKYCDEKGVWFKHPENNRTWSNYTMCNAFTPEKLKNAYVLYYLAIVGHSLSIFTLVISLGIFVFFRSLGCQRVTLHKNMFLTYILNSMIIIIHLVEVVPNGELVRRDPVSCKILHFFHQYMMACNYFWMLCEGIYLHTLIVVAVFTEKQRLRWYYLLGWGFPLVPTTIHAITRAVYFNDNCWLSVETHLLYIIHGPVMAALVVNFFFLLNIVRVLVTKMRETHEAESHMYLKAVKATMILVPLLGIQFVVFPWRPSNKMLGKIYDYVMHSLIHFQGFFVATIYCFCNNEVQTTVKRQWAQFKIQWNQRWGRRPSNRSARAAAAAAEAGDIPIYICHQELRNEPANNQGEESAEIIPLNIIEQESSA


Key:
[1] = biological target: T1, human amylin receptor (amylin 3(a) …); assay: cell-based or functional assay
[2] = biological target: T2, human calcitonin receptor; assay: cell-based or functional assay

Binder | hAmylin-R funct. EC50 [1] [nM] | Ratio hCT/hAmylin funct. (hCTR EC50 against hAmylin-R EC50) [2] | hCTR funct. EC50 [2] [nM]
K([AEEA-γGlu-C20 diacid])CNTATCATQRLANFLRHSSPNFGAIPSSTNVGPNTY-NH2 (disulfide 2-7; N-terminus assumed; SMILES CC[C@H](C)[C@H](NC(=O)[C@H](C)NC(=O)CNC(=O)[C@H](Cc1ccccc1)NC(=O)[C@H](CC(N)=O)NC(=O)[C@@H]1CCCN1C(=O)[C@H](CO)NC(=O)[C@H](CO)NC(=O)[C@H](Cc1c[nH]cn1)NC(=O)[C@H](CCCNC(=N)N)NC(=O)[C@H](CC(C)C)NC(=O)[C@H](Cc1ccccc1)NC(=O)[C@H](CC(N)=O)NC(=O)[C@H](C)NC(=O)[C@H](CC(C)C)NC(=O)[C@H](CCCNC(=N)N)NC(=O)[C@H](CCC(N)=O)NC(=O)[C@@H](NC(=O)[C@H](C)NC(=O)[C@@H]1CSSC[C@H](NC(=O)[C@@H](N)CCCCNC(=O)COCCOCCNC(=O)CC[C@H](NC(=O)CCCCCCCCCCCCCCCCCCC(=O)O)C(=O)O)C(=O)N[C@@H](CC(N)=O)C(=O)N[C@@H]([C@@H](C)O)C(=O)N[C@@H](C)C(=O)N[C@@H]([C@@H](C)O)C(=O)N1)[C@@H](C)O)C(=O)N1CCC[C@H]1C(=O)N[C@@H](CO)C(=O)N[C@@H](CO)C(=O)N[C@H](C(=O)N[C@@H](CC(N)=O)C(=O)N[C@H](C(=O)NCC(=O)N1CCC[C@H]1C(=O)N[C@@H](CC(N)=O)C(=O)N[C@H](C(=O)N[C@@H](Cc1ccc(O)cc1)C(N)=O)[C@@H](C)O)C(C)C)[C@@H](C)O, also called compound 50) | 0.038 | 17.4 | 0.662
K([AEEA-γGlu-C20 diacid])CNTATCATQRLAHFLRHSSPNFGAIPSSTNVGPNTY-NH2 (disulfide 2-7; N-terminus assumed; SMILES CC[C@H](C)[C@H](NC(=O)[C@H](C)NC(=O)CNC(=O)[C@H](Cc1ccccc1)NC(=O)[C@H](CC(N)=O)NC(=O)[C@@H]1CCCN1C(=O)[C@H](CO)NC(=O)[C@H](CO)NC(=O)[C@H](Cc1c[nH]cn1)NC(=O)[C@H](CCCNC(=N)N)NC(=O)[C@H](CC(C)C)NC(=O)[C@H](Cc1ccccc1)NC(=O)[C@H](Cc1c[nH]cn1)NC(=O)[C@H](C)NC(=O)[C@H](CC(C)C)NC(=O)[C@H](CCCNC(=N)N)NC(=O)[C@H](CCC(N)=O)NC(=O)[C@@H](NC(=O)[C@H](C)NC(=O)[C@@H]1CSSC[C@H](NC(=O)[C@@H](N)CCCCNC(=O)COCCOCCNC(=O)CC[C@H](NC(=O)CCCCCCCCCCCCCCCCCCC(=O)O)C(=O)O)C(=O)N[C@@H](CC(N)=O)C(=O)N[C@@H]([C@@H](C)O)C(=O)N[C@@H](C)C(=O)N[C@@H]([C@@H](C)O)C(=O)N1)[C@@H](C)O)C(=O)N1CCC[C@H]1C(=O)N[C@@H](CO)C(=O)N[C@@H](CO)C(=O)N[C@H](C(=O)N[C@@H](CC(N)=O)C(=O)N[C@H](C(=O)NCC(=O)N1CCC[C@H]1C(=O)N[C@@H](CC(N)=O)C(=O)N[C@H](C(=O)N[C@@H](Cc1ccc(O)cc1)C(N)=O)[C@@H](C)O)C(C)C)[C@@H](C)O, also called compound 68) | 0.054 | 17.4 | 0.932

Second part, the binder after the results:

hAmylin-R funct. EC50 [1] [nM] | Ratio hCT/hAmylin funct. (hCTR EC50 against hAmylin-R EC50) [2] | hCTR funct. EC50 [2] [nM] | Binder
0.056 | 9.4 | 0.527 | K([AEEA-γGlu-C20 diacid])CNTATCATQRLAGFLRHSSPNFGAIPSSTPVGSNTY-NH2 (disulfide 2-7; N-terminus assumed; SMILES CC[C@H](C)[C@H](NC(=O)[C@H](C)NC(=O)CNC(=O)[C@H](Cc1ccccc1)NC(=O)[C@H](CC(N)=O)NC(=O)[C@@H]1CCCN1C(=O)[C@H](CO)NC(=O)[C@H](CO)NC(=O)[C@H](Cc1c[nH]cn1)NC(=O)[C@H](CCCNC(=N)N)NC(=O)[C@H](CC(C)C)NC(=O)[C@H](Cc1ccccc1)NC(=O)CNC(=O)[C@H](C)NC(=O)[C@H](CC(C)C)NC(=O)[C@H](CCCNC(=N)N)NC(=O)[C@H](CCC(N)=O)NC(=O)[C@@H](NC(=O)[C@H](C)NC(=O)[C@@H]1CSSC[C@H](NC(=O)[C@@H](N)CCCCNC(=O)COCCOCCNC(=O)CC[C@H](NC(=O)CCCCCCCCCCCCCCCCCCC(=O)O)C(=O)O)C(=O)N[C@@H](CC(N)=O)C(=O)N[C@@H]([C@@H](C)O)C(=O)N[C@@H](C)C(=O)N[C@@H]([C@@H](C)O)C(=O)N1)[C@@H](C)O)C(=O)N1CCC[C@H]1C(=O)N[C@@H](CO)C(=O)N[C@@H](CO)C(=O)N[C@H](C(=O)N1CCC[C@H]1C(=O)N[C@H](C(=O)NCC(=O)N[C@@H](CO)C(=O)N[C@@H](CC(N)=O)C(=O)N[C@H](C(=O)N[C@@H](Cc1ccc(O)cc1)C(N)=O)[C@@H](C)O)C(C)C)[C@@H](C)O, also called compound 71)
0.051 | 10.9 | 0.554 | K([AEEA-γGlu-C20 diacid])CNTATCATQRLAHFLRHSSPNFGAIPSSTPVGSNTY-NH2 (disulfide 2-7; N-terminus assumed; SMILES CC[C@H](C)[C@H](NC(=O)[C@H](C)NC(=O)CNC(=O)[C@H](Cc1ccccc1)NC(=O)[C@H](CC(N)=O)NC(=O)[C@@H]1CCCN1C(=O)[C@H](CO)NC(=O)[C@H](CO)NC(=O)[C@H](Cc1c[nH]cn1)NC(=O)[C@H](CCCNC(=N)N)NC(=O)[C@H](CC(C)C)NC(=O)[C@H](Cc1ccccc1)NC(=O)[C@H](Cc1c[nH]cn1)NC(=O)[C@H](C)NC(=O)[C@H](CC(C)C)NC(=O)[C@H](CCCNC(=N)N)NC(=O)[C@H](CCC(N)=O)NC(=O)[C@@H](NC(=O)[C@H](C)NC(=O)[C@@H]1CSSC[C@H](NC(=O)[C@@H](N)CCCCNC(=O)COCCOCCNC(=O)CC[C@H](NC(=O)CCCCCCCCCCCCCCCCCCC(=O)O)C(=O)O)C(=O)N[C@@H](CC(N)=O)C(=O)N[C@@H]([C@@H](C)O)C(=O)N[C@@H](C)C(=O)N[C@@H]([C@@H](C)O)C(=O)N1)[C@@H](C)O)C(=O)N1CCC[C@H]1C(=O)N[C@@H](CO)C(=O)N[C@@H](CO)C(=O)N[C@H](C(=O)N1CCC[C@H]1C(=O)N[C@H](C(=O)NCC(=O)N[C@@H](CO)C(=O)N[C@@H](CC(N)=O)C(=O)N[C@H](C(=O)N[C@@H](Cc1ccc(O)cc1)C(N)=O)[C@@H](C)O)C(C)C)[C@@H](C)O, also called compound 61)
